Measured values reported in patent US20210395392A1 (Bristol-Myers Squibb, published 2021).

T1: Recombinant soluble extracellular domain of cynomolgus monkey MerTK (cynomolgus monkey, UniProt Q12866 21-505 (human entry))
T1 construct: SPR analyte; also called cMerTK; Cynomolgus MerTK
T1 chain: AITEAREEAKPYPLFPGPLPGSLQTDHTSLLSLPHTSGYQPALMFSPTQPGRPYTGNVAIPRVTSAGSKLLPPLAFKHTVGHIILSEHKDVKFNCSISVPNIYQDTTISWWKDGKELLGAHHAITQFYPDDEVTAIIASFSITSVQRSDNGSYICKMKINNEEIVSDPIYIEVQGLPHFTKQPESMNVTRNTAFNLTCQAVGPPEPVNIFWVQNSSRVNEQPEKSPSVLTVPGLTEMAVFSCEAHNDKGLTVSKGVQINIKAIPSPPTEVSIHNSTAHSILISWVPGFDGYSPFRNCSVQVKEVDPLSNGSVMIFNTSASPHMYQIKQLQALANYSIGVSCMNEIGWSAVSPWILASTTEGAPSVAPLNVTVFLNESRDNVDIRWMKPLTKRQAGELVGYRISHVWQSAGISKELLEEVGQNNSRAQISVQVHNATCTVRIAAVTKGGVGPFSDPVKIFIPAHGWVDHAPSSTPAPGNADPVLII

T2: Recombinant soluble extracellular domain of mouse MerTK (mouse, UniProt Q60805 19-497)
T2 construct: SPR analyte; also called mMerTK
T2 sequence: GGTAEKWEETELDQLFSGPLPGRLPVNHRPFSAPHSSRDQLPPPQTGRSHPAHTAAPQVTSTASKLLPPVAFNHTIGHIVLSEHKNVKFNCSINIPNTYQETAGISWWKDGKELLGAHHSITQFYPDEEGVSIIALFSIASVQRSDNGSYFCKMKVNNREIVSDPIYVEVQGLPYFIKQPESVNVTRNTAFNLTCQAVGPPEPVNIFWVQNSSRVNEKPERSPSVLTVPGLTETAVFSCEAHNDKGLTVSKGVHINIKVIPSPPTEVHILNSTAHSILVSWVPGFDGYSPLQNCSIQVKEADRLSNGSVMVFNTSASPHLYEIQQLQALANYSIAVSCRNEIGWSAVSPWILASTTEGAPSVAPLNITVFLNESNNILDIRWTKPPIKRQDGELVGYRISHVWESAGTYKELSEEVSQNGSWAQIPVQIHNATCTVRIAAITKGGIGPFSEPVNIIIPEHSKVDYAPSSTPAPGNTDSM

T3: Mouse MerTK on mMerTK-expressing cells (mouse, UniProt Q60805 19-994)
T3 sequence: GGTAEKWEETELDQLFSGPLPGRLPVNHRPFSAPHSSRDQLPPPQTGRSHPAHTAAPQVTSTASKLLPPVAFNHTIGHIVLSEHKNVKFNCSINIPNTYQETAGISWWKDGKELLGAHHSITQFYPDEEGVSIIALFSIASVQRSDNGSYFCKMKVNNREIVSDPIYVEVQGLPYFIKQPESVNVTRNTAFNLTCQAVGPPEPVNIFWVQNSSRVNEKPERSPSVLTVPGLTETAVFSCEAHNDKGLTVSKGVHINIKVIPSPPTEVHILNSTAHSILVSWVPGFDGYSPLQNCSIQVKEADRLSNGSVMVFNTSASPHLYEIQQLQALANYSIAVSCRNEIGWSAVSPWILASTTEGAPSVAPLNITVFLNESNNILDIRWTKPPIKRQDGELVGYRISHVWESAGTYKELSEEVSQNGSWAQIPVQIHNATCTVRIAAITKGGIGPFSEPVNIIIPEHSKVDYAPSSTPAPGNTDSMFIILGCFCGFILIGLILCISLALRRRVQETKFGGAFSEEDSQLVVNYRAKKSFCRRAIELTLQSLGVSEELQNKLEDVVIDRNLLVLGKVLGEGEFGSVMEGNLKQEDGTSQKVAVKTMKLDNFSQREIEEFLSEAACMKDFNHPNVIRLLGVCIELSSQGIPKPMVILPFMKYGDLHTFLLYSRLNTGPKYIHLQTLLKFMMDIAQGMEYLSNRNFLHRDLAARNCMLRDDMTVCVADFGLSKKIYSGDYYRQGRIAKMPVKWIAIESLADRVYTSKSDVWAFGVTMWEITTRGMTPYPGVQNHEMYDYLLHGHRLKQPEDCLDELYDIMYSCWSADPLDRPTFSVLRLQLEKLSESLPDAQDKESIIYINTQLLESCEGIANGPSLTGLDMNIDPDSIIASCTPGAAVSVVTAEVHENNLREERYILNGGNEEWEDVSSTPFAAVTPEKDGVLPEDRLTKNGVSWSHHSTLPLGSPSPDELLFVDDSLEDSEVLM


Tests used:
[1] = biological target: T1, Recombinant soluble extracellular …; test: SPR, mAb captured, soluble MerTK ECD as analyte, 37 C
Protocol: MerTK Abs were captured on the chip. Recombinant soluble forms of the extracellular domains of human, cynomolgus monkey, and mouse MerTK polypeptide were injected as analytes at multiple concentrations each. The resulting sensorgrams were double-referenced and fitted to a 1:1 Langmuir binding model with mass transport.

[2] = biological target: T2, Recombinant soluble extracellular …; test: summary sentence of the description; assay not named
[3] = biological target: T3, Mouse MerTK on mMerTK-expressing cells; test: cell-based or functional assay

Kd [1] [nM] | koff [1] [s⁻¹] | kon [1] [M⁻¹ s⁻¹] | t1/2 [1] [min] | binding result [2] | Signaling Assay, mMerTK with Gas6, pSTAT1 IC50 (nM) [3] [nM] | Binder
31.3 | 0.00379 | 121000 | 3 | no binding | – | HuMAb 4K10 (antibody, human IgG1, kappa, V domains shown, Human anti-hMerTK mAb, Bin 3) VH: QVQLQQWGAGLLKPSETLSLTCAVYGGSFSGYYWSWLRQPPGKGLEWIGEISHSGSTNYNPSLKSRVTISVDTSKNQFSLKLSSVTAADTAVYYCARALSRYWYFDLWGRGTLVTVSS VL: EIVLTQSPATLSLSPGERATLSCRASQSASNYLAWYQQKPGQAPRLLIYDASNRATGIPARFSGSGSGTDFTLTISSLEPEDFAVYYCYQRSQWPISFGQGTRLEIKR
14 | 0.0014 | 100000 | 8.3 | no binding | – | HuMAb 8N42 (antibody, V domains shown, Human anti-hMerTK mAb, Bin 1) VH: QVQLQQWGAGLLKPSETLSLTCAVYGGSFSIYYWSWIRQPPGKGLELIGEINDEGNTNYNPSLKSRVTISVDTSKNQFSLKLSSVTAADTAVYYCARGGTGDIHAFDIWGQGTMVTVSS VL: DIQMTQSPSSLSASVGDRVTITCRASQGISKWLAWYQQKPEKAPKSLIYAASSLQSGVPSRFSGSGSGTDFTLTISSLQPEDFATYYCQQYNSYPWTFGQGTKVEIKR
2.5 | 0.00099 | 400000 | 11.7 | no binding | – | HuMAb 25J60 (antibody, human IgG1, kappa, V domains shown, Human anti-hMerTK mAb, Bin 2, derived from HuMAb 25B10 by optimization) VH: QVQLVQSGAEVKKPGASVKVSCKTSGNTQIRYYMYWVRQAPGQGLEWMGILNPNQDQTTYAQKFQGRVTMTRDTSTSTVYMELSSLRSEDTAVYYCATTYRYYMDVWGQGTTVTVSS VL: not shown
4.5 | 0.00124 | 274000 | 4.5 | no binding | – | HuMAb 25J80 (antibody, human IgG1, kappa, V domains shown, Human anti-hMerTK mAb, Bin 2, derived from HuMAb 25B10 by optimization) VH: QVQLVQSGAEVKKPGASVKVSCKTSGRTFIRYYMHWVRQAPGQGLEWMGIIWPNGDQTTYAQKFQGRVTMTRDTSTSTVYMELSSLRSEDTAVYYCATTYKYAMDVWGQGTTVTVSS VL: EIVLTQSPGTLSLSPGERATLSCRASQSVRSNYLAWYQQKPGQAPRLLIYGASSRATGIPDRFSGSGSGTDFTLTISRLEPEDFAVYYCQQYESPPRTFGQGTKVEIKR
54.9 | 0.00796 | 145000 | 1.5 | no binding | > 100 | HuMAb 1B4 (antibody, human IgG1, kappa, V domains shown, Human anti-hMerTK mAb, Bin 1) VH: QLQLQESGPGLVKPSETLSLTCAVSGYSISSGNYWGWIRQSPGKGLEWIGSVDHSGSTYYSPSLKSRVTISVDTSKNQFSLKLNSVTAADTADYYCARNTMIRGVMDWFDPWGQGTLVTVSS VL: AIQLTQSPSSLSASVGDRVTITCRASQGISSALAWYQQKPGKAPKVLIYDASSLESGVPSRFSGSGSGTDFTLTISSLQPEDFATYYCQQFRSYPTFGQGTKVEIKR
24.7 | 0.00126 | 50900 | 10.2 | no binding | – | HuMAb 22I16 (antibody, human IgG1, kappa, V domains shown, Human anti-hMerTK mAb, Bin 1; also called 22116) VH: EVQLVESGGGLVQPGGSLRLSCAASGFTFSSYSMNWVRQAPGKGLEWVSYIISGSDTIFYADSVKGRFTISRDNAKNSLYLQMNSLRDEDTAVYYCARDETVVRGVINYFDYWGQGTLVTVSS VL: AIQLTQSPSSLSASVGDRVTITCRSSQGISSALAWYQQKPGKAPKLLIYDASSLESGVPSRFSGSGSGTDFTLTISSLQPEDFATYYCQQFISYPTFGQGTRLEIKR
